# B1: G-CSF (ligand)
# chain: not shown
# Biological target: T1, human G-CSF receptor transfected in BaF3 cells (human, UniProt Q99062 25-836)
# T1 construct: whole, on cells; also called hG-CSF receptor; BaF3/hG-CSF
# Experiment: competition with an agonist-specific radioligand, BaF3 cells transfected with the G-CSF receptor
binder,measurement,value
B1,IC50,690 pM

# Reference: US6967092 (dated 2005)
